Assay results reported in the Immune Epitope Database (IEDB).

The sequences below were run against HLA-B*35:01 (assay: IEDB peptide-MHC binding, purified MHC/direct/fluorescence; filed as Kd, often an IC50 or EC50 that approximates it; ≥ and ≤ were set here for values at or beyond the usual limits of such assays). Settings: source organism: Yellow fever virus.
FCVKVLAPY gave a Kd of 10 nM.
Sequence HSEEGSRAY has a Kd of 3 nM.
LAVMGDAAW gave a Kd of at most 1 nM.
With LVGAAIHPF the Kd was 29 nM.
For LVLAVGPAY, the Kd was at most 1 nM.
MAGCGYLMF was tested, and the Kd was 2 nM.
MNNGGDAMY gave a Kd of 46 nM.
MYMALIAAF showed a Kd of 207 nM.
For TAVDFGNSY, the Kd was at most 1 nM.
Sequence VLIEVNPPF has a Kd of 39 nM.
WFYDNDNPY was tested, and the Kd was at most 1 nM.
Sequence YVIRDLAAM has a Kd of at most 1 nM.

Same assay, conditions: source organism: dengue virus type 1
In the case of YLAGAGLAF, the Kd is reported as 4 nM.

Same assay, conditions: source organism: dengue virus type 2
MANIFRGSY showed a Kd of 829 nM.
Work on YAQMWSLMY yielded a Kd of at most 1 nM.

Each sequence was assayed against HLA-B*07:02 in the same assay as above. Settings: source organism: Yellow fever virus.
Work on AATIRVLAL yielded a Kd of 204 nM.
AVSRGTAKL was tested, and the Kd was 6770 nM.
GPAEARKVC gave a Kd of 117 nM.
RVLDCRTAF gave a Kd of 240 nM.
RVSSDQSAL gave a Kd of 95 nM.
With SPGRKNGSF the Kd was 27 nM.
SVAMCRTPF showed a Kd of 290 nM.

Same assay, conditions: source organism: dengue virus type 1
CPTQGEATL showed a Kd of 821 nM.
GPSLRTTTV gave a Kd of 3 nM.

Same assay, conditions: source organism: dengue virus type 2
RERLSRMAI showed a Kd of 444 nM.
Work on SPSKLASAI yielded a Kd of 12 nM.

Same assay, conditions: source organism: dengue virus type 3
HPGFTILAL showed a Kd of 8 nM.

Same assay, conditions: source organism: dengue virus type 4
ILRNPGFAL showed a Kd of 2 nM.
MPVMKRYSA gave a Kd of 30 nM.
QPKPGTRMV showed a Kd of 14 nM.

The sequences below were run against HLA-B*27:05 in the same assay as above. Settings: source organism: Yellow fever virus.
Sequence KRVVASLMR has a Kd of 107 nM.
SRLLMRRMR was tested, and the Kd was 295 nM.
SRLTYQWHK gave a Kd of 16 nM.
In the case of YRNALSMMP, the Kd is reported as at least 20000 nM.

Same assay, conditions: source organism: dengue virus type 1
In the case of RKHGGMLVR, the Kd is reported as 348 nM.
For RRDKRSVAL, the Kd was 52 nM.
With YRLRGEARK the Kd was 86 nM.

Same assay, conditions: source organism: dengue virus type 2
Sequence KRAAAGIMK has a Kd of 75 nM.

Same assay, conditions: source organism: dengue virus type 4
FRKGSSIGK was tested, and the Kd was 52 nM.
For KQLGQVMLL, the Kd was 129 nM.
For RREKRSVAL, the Kd was 400 nM.
In the case of WRTIMAVLF, the Kd is reported as 232 nM.

These sequences were tested against HLA-B*15:01 in the same assay as above. Settings: source organism: Yellow fever virus.
Sequence AQAVMEMTY has a Kd of 56 nM.
In the case of GMMGGLWKY, the Kd is reported as 32 nM.
Work on RTWHYCGSY yielded a Kd of 68 nM.
For SIQDNQVAY, the Kd was 217 nM.
SQEAEFTGY showed a Kd of 94 nM.
Work on VLIEVNPPF yielded a Kd of 69 nM.

Same assay, conditions: source organism: dengue virus type 1
GMGEAAAIF was tested, and the Kd was 29 nM.
Sequence KLEGKIVQY has a Kd of 126 nM.
SQHNYRPGY showed a Kd of 22 nM.
Work on YLAGAGLAF yielded a Kd of 11 nM.

Same assay, conditions: source organism: dengue virus type 2
KLQLKGMSY gave a Kd of 111 nM.
Work on TLYAVATTF yielded a Kd of 133 nM.

Same assay, conditions: source organism: dengue virus type 3
With KQIANELNY the Kd was 113 nM.

Same assay, conditions: source organism: dengue virus type 4
With AQEDDQYVF the Kd was 81 nM.

What follows are sequences tested against HLA-A*24:03 in the same assay as above. Settings: source organism: Yellow fever virus.
Work on AFHGLDVKF yielded a Kd of 14 nM.
Sequence IFFFLFNIL has a Kd of 19 nM.
IHTVFGSAF gave a Kd of 373 nM.
LVGAAIHPF gave a Kd of 575 nM.
MAGCGYLMF showed a Kd of 13 nM.
In the case of MWHVTRGAF, the Kd is reported as 32 nM.
In the case of MYMALIAAF, the Kd is reported as 9 nM.
Sequence RWFVRNPFF has a Kd of 17 nM.
In the case of VMGDAAWDF, the Kd is reported as 303 nM.
VYMDAVFEY was tested, and the Kd was 253 nM.
WFYDNDNPY gave a Kd of 5100 nM.
For WLGARYLEF, the Kd was 35 nM.
YYAFVGVMY gave a Kd of 5 nM.

Same assay, conditions: source organism: dengue virus type 1
GFMNEDHWF showed a Kd of 17 nM.
In the case of WYMWLGARF, the Kd is reported as 19 nM.

Same assay, conditions: source organism: dengue virus type 2
In the case of GFLNEDHWF, the Kd is reported as 34 nM.
With WYGMEIRPL the Kd was 119 nM.

Same assay, conditions: source organism: dengue virus type 3
In the case of WHDWQQVPF, the Kd is reported as 170 nM.

What follows are sequences tested against HLA-A*03:01 in the same assay as above. Settings: source organism: Yellow fever virus.
Work on ALNTITNLK yielded a Kd of 245 nM.
GTHPFSRIR showed a Kd of 859 nM.
With KTALTGAMR the Kd was 147 nM.
For KTHESHLVR, the Kd was 678 nM.
KVVNRWLFR was tested, and the Kd was 218 nM.
RSHAAIGAY was tested, and the Kd was 313 nM.
Work on RVDGLELKK yielded a Kd of 203 nM.
TINAVASRK gave a Kd of 129 nM.
VLDCRTAFK gave a Kd of 75 nM.
VLWDIPTPK showed a Kd of 14 nM.
Work on VMYNLWKMK yielded a Kd of 4 nM.

Same assay, conditions: source organism: dengue virus type 1
With AVSMANIFR the Kd was 52 nM.
SSADLSLEK showed a Kd of 85 nM.
For SSMVNGVVR, the Kd was at least 20000 nM.

Same assay, conditions: source organism: dengue virus type 2
In the case of KTFVDLMRR, the Kd is reported as 80 nM.
Work on TVNPIVTEK yielded a Kd of 40 nM.

Same assay, conditions: source organism: dengue virus type 3
With KTFDTEYQK the Kd was 198 nM.
Work on SYYCAGLKK yielded a Kd of 2130 nM.
Work on TVMDIISRK yielded a Kd of 30 nM.

Same assay, conditions: source organism: dengue virus type 4
For ATYGWNLVK, the Kd was 3 nM.
For KTFVELMRR, the Kd was 45 nM.
KVASAGISY gave a Kd of 85 nM.
VVTLIPLCR showed a Kd of 9040 nM.

The sequences below were run against HLA-B*58:01 in the same assay as above. Settings: source organism: Yellow fever virus.
Work on ESWIVDRQW yielded a Kd of 123 nM.
For ISYIMLIFF, the Kd was 1050 nM.
ITAHLKRLW was tested, and the Kd was 46 nM.
KIMKVVNRW gave a Kd of 37 nM.
KSAHGSPTF showed a Kd of 36 nM.
Work on KTNDRKWCF yielded a Kd of 58 nM.
KTWGKNLVF showed a Kd of 19 nM.
Sequence LAVMGDAAW has a Kd of 3 nM.
RQLQKIERW was tested, and the Kd was 67 nM.

Same assay, conditions: source organism: dengue virus type 2
ICSAVPSHW gave a Kd of 394 nM.
In the case of ITAAAWYLW, the Kd is reported as 46 nM.

Same assay, conditions: source organism: dengue virus type 3
With ICSAVPVHW the Kd was 76 nM.
In the case of VSGKLIHEW, the Kd is reported as 32 nM.

Same assay, conditions: source organism: dengue virus type 4
KAYAQMWSL showed a Kd of 10 nM.
With STMPLVMAW the Kd was 3 nM.
